Reference: the DeepSol protein solubility set

Experiment: soluble on expression in E. coli; label from the status in PepcDB or PDB records

Sequence | soluble on expression in E. coli
SNAIMAKTAKVAVSQIVEHPALDATRQGLLDGLKAKGYEEGKNLEFDYKTAQGNPAIAVQIARQFVGENPDVLVGIATPTAQALVSATKTIPIVFTAVTDPVGAKLVKQLEQPGKNVTGLSDLSPVEQHVELIKEILPNVKSIGVVYNPGEANAVSLMELLKLSAAKHGIKLVEATALKSADVQSATQAIAEKSDVIYALIDNTVASAIEGMIVAANQAKTPVFGAATSYVERGAIASLGFDYYQIGVQTADYVAAILEGKEPGSLDVQVAKGSDLVINKTAAEQLGITIPEAVLARATSTK | soluble
SNALQPNMRTRVCTVINNNIAHEWTLARIASELLMSPSLLKKKLREEETSYSQLLTECRMQRALQLIVIHGFSIKRVAVSCGYHSVSYFIYVFRNYYGMTPTEYQERSAQRLSNRDSAAS | soluble
SNAMAALPDKEKLLRNFTRCANWEEKYLYIIELGQRLAELNPQDRNPQNTIHGCQSQVWIVMRRNANGIIELQGDSDAAIVKGLMAVVFILYHQMTAQDIVHFDVRPWFEKMALAQHLTPSRSQGLEAMIRAIRAKAATLS | soluble
SNAMKFLTVSDDMNFLRQVNTLVAGKGDMDSVIIGEGDAKGLGSKVLYRAKKGTPFDAVSEGILKIAGNYDYIAIGSTEVGREIAGYLSFKTGFYTATEIFSLEFNGQKAHTKRFFYGGKTVIEEESDARILTVAPGVIEAKDLGTTPEIRDLEIGQSRIKITKFV | soluble
SNAMKIIFSASPANRAAAYALRQAVFVEERGISADVEFDVKDTDQCEYAVLYLQPDLPITTLRLEPQADHVMRFGRVCTRKAYRGHGWGRQLLTAAEEWATQRGFTHGEIHGELTAQRFYELCGYRVTAGPYDEDGAPVVIMHKQLL | soluble
SNAMKLTPNFYRDRVCLNVLAGSKDNAREIYDAAEGHVLVGVLSKNYPDVASAVVDMRDYAKLIDNALSVGLGAGDPNQSAMVSEISRQVQPQHVNQVFTGVATSRALLGQNETVVNGLVSPTGTPGMVKISTGPLSSGAADGIVPLETAIALLKDMGGSSIKYFPMGGLKHRAEFEAVAKACAAHDFWLEPTGGIDLENYSEILKIALDAGVSKIIPHIYSSIIDKASGNTRPADVRQLLEMTKQLVK | soluble
SNAMKLTPNYYRDRVCLNVLAGSKDNARAIYQAAEGHVLVGVLSKNYPDVDSAVKDMREYAALIDNALSVGLGAGDPRQSVMVSQISQQVQPQHVNQVFTGVGASRALLGQHDTVVNGLISPTGKVGYVKISTGPLSSQQKDAIVPVTTAIAMLKDMGGSSVKFFPMNGLDSIDEYRFVAEACAATGFWLEPTGGIDLDNFEQIVQIALDAGVTKVIPHIYSSIIDSKTGNTRPEDVKTLLDIVKKIVQ | soluble
SNAMKVKIYTRNGCPYCVWAKQWFEENNIAFDETIIDDYAQRSKFYDEMNQSGKVIFPISTVPQIFIDDEHIGGFTELKANADKILNKK | soluble
SNAMLNIVLFEPEIPPNTGNIIRLCANTGCQLHLIKPLGFTWDDKRLRRAGLDYHEFADIKHHHDYQAFLDSEKLDSTQPARLFALTTKGTPAHSAVSYQANDYLLFGPETRGLPAYILDALPAQQKIRIPMQADSRSMNLSNAVSVVVYEAWRQLGYPGALLKE | soluble
SNAMNHLPEKMRPYRDLLEKSAKEYVKLNVRKGKTGRYDSKIAGDPYFPKHETYPTDENGQPMKLLAQINFSHIPQLDGYPSSGILQFYISVHDDVYGLNFDDRCEQKNFRVIYFENIVENDDELVSDFSFIGTGECDFPILSEAAVEPVKSSEWVLPTDFQFEQYTGMETMEFFGQFGEDEEDIYNELAENGFGHKIGGYASFTQHDPREYAYKEHTIMLLQIDSDDDIDSMWGDVGIANFFITPEDLRKKDFSNVLYNWDCS | soluble
SNAMPSIRYPSTEFPALTGFTVPIPETWQPDPTMGTQFAARPHTPPQGFTPNIIGTVRRAATGALHNQRTELDQRATQLPDYAERGRTETTVDGFPAYHIEYAYRHHGTITIAQMITLVEVSHPHAVDIIQLTATCAGDQTADYWDTFRLMHADLTVQPHG | soluble
SNAMTKKKVYIVSHSHWDREWYLPYEEHHMRLIELVDNVLDLIENDPEFNSFHLDGQTIILDDYLQVRPEKKEAVKKAVQAGKLKIGPFYILQDDFLISSESNVRNMLIGHLESQKWGAPVQLGYFPDTFGNMGQTPQMMQLANLPAAAFGRGVKPIGFDNQVLESDYSSQYSEMWWEGPDQTKIFGLLFANWYSNGNEIPSEKEAAIAFWKQKLADVERYASTNHLLMMNGVDHQPVQRDITKAIALANELFPEYEFIHSNFDDYLKAVQEELPEDLGTVTGELTSQETDGWYTLANTSSARVYLKQWNTKVQRQLENIAEPLAAMAYEVTGDYPHDQFDYAWKTLLQNHPHDSICGCSVDEVHRGMMTRFENANDVGHFLADEATRQLTEAIDTSVFPEKAHPFVLFNTSGYQKTEVVTVEVEIERLPFYTGKPEDLYHELKQKATPDYQVIDPTGKAVASRIVKEDVRFGYDLPKDAFRQPYMAKYLTVELSVKEMAPFSWDSFALIQGETKAFEGSLLAQPATNEMENEFIQVKIENNGSLTIADKKTGETFSKLLTFEDTGDIGNEYIFFKPTEDQGITTENVTAEITNKENSPVKASYQIKQTVMLPVAADERLEEEQKAVREFRERLAQRSTTLRPFEITTMVTMIKESNQLFFETTINNQIKDHRLRVLFPTGMVTETHEADSIYEVVTRPNQVSDTWENPTNPQHQQAFVNVHDQNKGVTIFNEGLNEYEVLADGTIAVTLIRCVGELGDWGYFATPEAQCQGEYTFKYGLSLHGKPEERFATYQQAYSAQIPFTAATTARHEGKLAPNHVYLTTAEGPIGWTAVKRQEQTNHLVVRGFNLTAQNIPCELHKETQPATCLTNVLEEPLTPAIEVDAPLRPFEIRTWRFEK | soluble
SNAMTQQDFRTKVDNTVFGVRATALIVQNHKLLVTKDKGKYYTIGGAIQVNESTEDAVVREVKEELGVKAQAGQLAFVVENRFEVDGVSYHNIEFHYLVDLLEDAPLTMQEDEKRQPCEWIDLDKLQNIQLVPVFLKTALPDWEGQLRHIHLEE | soluble
SNANRDSLFNDPNAPVLGNPEGDVTVVEFFDYNCPYCRRAMAEVQGLVDADPNVRLVYREWPILGEGSDFAARAALAARQQGKYEAFHWALMGMSGKANETGVLRIAREVGLDTEQLQRDMEAPEVTAHIAQSMALAQKLGFNGTPSFVVEDALVPGFVEQSQLQDAVDRARKAA | soluble
SNAPLLLGKKAPNLYMTDTTGTYRYLYDVQAKYTILFFWDSQCGHCQQETPKLYDWWLKNRAKGIQVYAANIERKDEEWLKFIRSKKIGGWLNVRDSKNHTDFKITYDIYATPVLYVLDKNKVIIAKRIGYENLDDFLVQYEKSLKTK | soluble
SNAWIVPKNSVLFAMYGSIGETAINKIEVATNQAILGIIPKDNILESEFLYYILAKNKNYYSKLGMQTTQKNLNAQIVKSFKIPLPPLEEQKQIAKILTKI | not soluble
SNNCKENFLTSRYNKPVDEKQYNIPGKVTITTLQNIPVIYKRIVGSYKELELTNPLSELFQYGMEHDLLDKDSSFPLTIYHSHPDITTADNQRASSCIIIKQNVKQLDSEEIGLMEIPSGLYGVIHFEIRQKEYPDAWDFVYGNWLPSSGYLPANSFPFEVYLNNPLEDPLQKHIVDIYIPIEPIN | not soluble
SNPAAEAEFNILLATDSYKVTHYKQYPPNTSKVYSYFECREKKTENSKLRKVKYEETVFYGLQYILNKYLKGKVVTKEKIQEAKDVYKEHFQDDVFNEKGWNYILEKYDGHLPIEIKAVPEGFVIPRGNVLFTVENTDPECYWLTNWIETILVQSWYPITVATNSREQKKILAKYLLETSGNLDGLEYKLHDFGYRGVSSQETAGIGASAHLVNFKGTDTVAGLALIKKYYGTKDPVPGYSVPAAEHSTITAWGKDHEKDAFEHIVTQFSSVPVSVVSDSYDIYNACEKIWGEDLRHLIVSRSTQAPLIIRPDSGNPLDTVLKVLEILGKKFPVTENSKGYKLLPPYLRVIQGDGVDINTLQEVCVLY | not soluble
SNRLGIPALSGDTLSLLNTPSEILNAIISDIEKAEHEINMEFYIWHHGGLADSVASALIVAAKRGVTVNVLLDSAGSMDFFKSHWPKLLKQSGVNIVEALSVSPFRMFFRRLDLRLHRKIVVIDNRIAYTGSMNLVDPQYFKQNSGVGQWIDVMVRLTGPNVAILNTIHAWDWEVETGIRELPHLPECPASIDPFNHTTQVVPSGPGMPDDIIQQV | not soluble
SNTTEILTSVDVLGTHSQTGTQQSNMYTSTQKTELEIDNKDSVTECSKDMKEDGLSFVDIVLSKAASALDEKEKQLAVANEIIRSLSDEVMRNEIRITSLQGDLTFTKKCLENARSQISEKDAKINKLMEKDFQVNKEIKPY | soluble
SNVRATYTVIFKNASGLPNGYDNWGWGCTLSYYGGAMIINPQEGKYGAVSLKRNSGSFRGGSLRFDMKNEGKVKILVENSEADEKFEVETISPSDEYVTYILDVDFDLPFDRIAFQDAPGNGDRIWIKNLVHSTGSADDFVDPINLEHHHHHH | soluble
SPLEQRSQHCKPEEGLEARGEALGLVGAQAPATEEQEAASSSSTLVEVTLGEVPAAESPDPPQSPQGASSLPTTMNYPLWSQSYEDSSNQEEEGPSTFPDLESEFQAALSRKVAKLVHFLLLKYRAREPVTKAEMLGSVVGNWQYFFPVIFSKASDSLQLVFGIELMEVDPIGHVYIFATCLGLSYDGLLGDNQIMPKTGFLIIILAIIAKEGDCAPEEKIWEELSVLEVFEGREDSIFGDPKKLLTQYFVQENYLEYRQVPGSDPACYEFLWGPRALIETSYVKVLHHMVKISGGPRISYPLLHEWALREGEE | soluble
SPMAVEEVIEMQGLSLDPTSHRVMAGEEPLEMGPTEFKLLHFFMTHPERVYSREQLLNHVWGTNVYVEDRTVDVHIRRLRKALEPGGHDRMVQTVRGTGYRFSTRF | soluble
SPRGLELLIAQTILQGFDAQYGRFLEVTSGAQQRFEQADWHAVQQAMKNRIHLYDHHVGLVVEQLRCITNGQSTDAEFLLRVKEHYTRLLPDYPRFEIAESFFNSVYCRLFDHRSLTPERLFIFSSQPERRFRTIPRPLAKDFHPDHGWESLLMRVISDLPLRLHWQNKSRDIHYIIRHLTETLGPENLSKSHLQVANELFYRNKAAWLVGKLITPSGTLPFLLPIHQTDDGELFIDTCLTTTAEASIVFGFARSYFMVYAPLPAALVEWLREILPGKTTAELYMAIGCQKHAKTESYREYLVYLQGCNEQFIEAPGIRGMVMLVFTLPGFDRVFKVIKDKFAPQKEMSAAHVRACYQLVKEHDRVGRMADTQEFENFVLEKRHISPALMELLLQEAAEKITDLGEQIVIRHLYIERRMVPLNIWLEQVEGQQLRDAIEEYGNAIRQLAAANIFPGDMLFKNFGVTRHGRVVFYDYDEICYMTEVNFRDIPPPRYPEDELASEPWYSVSPGDVFPEEFRHWLCADPRIGPLFEEMHADLFRADYWRALQNRIREGHVEDVYAYRRRQRFSVRYGEMLF | soluble
SPTNLANGLSSLLKPLKFFHLPIDEISLMLALSLRFVPTLMDETGKIMNAQRARGVDFGEGNIFQQMRSLVPIFIPQFIASFNRADELATAMESRGYRGAAKRTKFNRLKFK | not soluble
SQELTLSPGPAKLTPTLDPTHRMELILSTSPAELTLDPACQPKLPLDSTCQPEMTFNPGPTELTLDPEHQPEETPAPSLAELTLEPVHRRPELLDACADLINDQWPRSRTSRLHSLGQSSDAFPLCLMLLSPHPTLEAAPVVVGHARLSRVLNQPQSLLVETVVVARALRGRGFGRRLMEGLEVFARARGFRKLHLTTHDQVHFYTHLGYQLGEPVQGLVFTSRRLPATLLNAFPTAPSPRPPRKAPNLTAQAAPRGPKGPPLPPPPPLPECLTISPPVPSGPPSKSLLETQYQNVRGRPIFWMEKDI | soluble
